Test results published in paper PMC7948647, “Region 4 of the RNA polymerase σ subunit counteracts pausing during initial transcription”.

Legend:
[1] = molecular target: RNAP core from E. coli (EcoRNAP core) (E. coli) (UniProt P0A8V2)
[2] = molecular target: RNAP core from E. coli (EcoRNAP core) (E. coli) (UniProt P0A8V2); remark: listed apart in the source
[3] = molecular target: RNA polymerase core (EcoRNAP) (Escherichia coli, UniProt P0A7Z4;P0A8V2;P0A8T7;P0A800 1-329;1-1342;1-1407;2-91); assay: pull-down (Ni-agarose RNA retention); 1 M NaCl wash; 40 mM HEPES pH 7.9, 5 mM MgCl2, 50 mM NaCl, 5% glycerol; binding to Ni-NTA at 18 C, washes with 250 mM NaCl (1 M for core controls), labeling at 22 C; conditions: protein: recombinant; tags: C-terminal 6xHis on rpoC; chain copies: 2;1;1;1; 9-bp downstream duplex, 10-nt 3' template overhang; 13-nt RNA with unpaired 5' end
[4] = molecular target: full-length σ^70 subunit of E. coli RNA polymerase (E. coli) (UniProt P00579)
full-length σ^70 subunit of E. coli RNA polymerase (E. coli), sequence (P00579 whole entry): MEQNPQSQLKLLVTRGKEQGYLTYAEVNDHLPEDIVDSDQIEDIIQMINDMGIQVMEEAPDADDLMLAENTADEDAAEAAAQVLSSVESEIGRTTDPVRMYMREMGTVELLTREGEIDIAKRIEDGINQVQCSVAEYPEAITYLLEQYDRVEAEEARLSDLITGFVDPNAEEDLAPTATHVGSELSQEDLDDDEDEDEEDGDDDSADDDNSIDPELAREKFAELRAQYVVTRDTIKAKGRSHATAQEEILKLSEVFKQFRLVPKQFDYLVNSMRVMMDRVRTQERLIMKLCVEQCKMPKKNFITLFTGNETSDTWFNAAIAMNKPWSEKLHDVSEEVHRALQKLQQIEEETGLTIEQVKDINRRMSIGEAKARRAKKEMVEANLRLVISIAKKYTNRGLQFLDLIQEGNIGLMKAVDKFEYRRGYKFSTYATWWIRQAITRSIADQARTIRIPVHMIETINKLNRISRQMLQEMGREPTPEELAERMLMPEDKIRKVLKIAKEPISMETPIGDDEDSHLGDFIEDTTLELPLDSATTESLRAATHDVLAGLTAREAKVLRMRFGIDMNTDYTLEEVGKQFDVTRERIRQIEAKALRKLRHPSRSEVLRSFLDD

RNAP core from E. coli (EcoRNAP core) (E. coli), sequence (P0A8V2 whole entry, looked up): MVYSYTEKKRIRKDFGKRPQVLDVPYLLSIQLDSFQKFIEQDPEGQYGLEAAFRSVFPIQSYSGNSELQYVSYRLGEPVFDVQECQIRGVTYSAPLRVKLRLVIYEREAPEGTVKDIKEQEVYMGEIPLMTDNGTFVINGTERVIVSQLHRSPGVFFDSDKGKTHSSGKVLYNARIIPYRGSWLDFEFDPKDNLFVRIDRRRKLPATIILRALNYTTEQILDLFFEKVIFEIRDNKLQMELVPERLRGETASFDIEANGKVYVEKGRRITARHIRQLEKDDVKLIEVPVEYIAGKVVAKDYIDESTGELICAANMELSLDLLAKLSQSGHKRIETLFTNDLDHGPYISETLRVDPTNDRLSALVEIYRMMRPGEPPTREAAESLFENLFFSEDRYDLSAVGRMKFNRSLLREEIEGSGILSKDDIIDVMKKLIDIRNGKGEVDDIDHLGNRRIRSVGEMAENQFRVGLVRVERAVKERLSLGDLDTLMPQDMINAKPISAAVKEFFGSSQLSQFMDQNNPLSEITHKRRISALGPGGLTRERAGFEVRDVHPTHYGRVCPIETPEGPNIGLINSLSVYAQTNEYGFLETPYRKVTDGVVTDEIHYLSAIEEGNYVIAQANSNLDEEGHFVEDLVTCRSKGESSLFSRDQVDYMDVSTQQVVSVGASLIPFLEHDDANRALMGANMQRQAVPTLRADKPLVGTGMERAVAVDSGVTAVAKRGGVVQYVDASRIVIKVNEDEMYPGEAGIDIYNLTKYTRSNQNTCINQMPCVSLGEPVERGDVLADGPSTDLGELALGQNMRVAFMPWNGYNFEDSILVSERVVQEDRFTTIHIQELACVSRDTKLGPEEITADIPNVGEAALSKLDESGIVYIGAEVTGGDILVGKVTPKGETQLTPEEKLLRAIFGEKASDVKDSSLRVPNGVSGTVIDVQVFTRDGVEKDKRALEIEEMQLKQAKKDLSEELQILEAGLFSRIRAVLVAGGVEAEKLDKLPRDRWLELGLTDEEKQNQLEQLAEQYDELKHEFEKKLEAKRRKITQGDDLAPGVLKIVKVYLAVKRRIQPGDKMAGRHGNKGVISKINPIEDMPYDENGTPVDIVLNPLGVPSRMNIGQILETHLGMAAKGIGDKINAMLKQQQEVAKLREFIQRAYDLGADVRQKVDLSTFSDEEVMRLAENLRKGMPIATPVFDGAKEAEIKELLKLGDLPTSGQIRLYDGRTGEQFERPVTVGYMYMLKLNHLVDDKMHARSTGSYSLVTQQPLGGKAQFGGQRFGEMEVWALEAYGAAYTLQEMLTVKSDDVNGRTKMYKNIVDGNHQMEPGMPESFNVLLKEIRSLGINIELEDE

σΔ4 fragment of σ^70 (residues 1–529) (from UniProt P00579 1-529) (domain or fragment)
translocation efficiency (fraction of 5-nt RNA) in extension of the 2-nt primer GpC on the LDT scaffold [1]: < 50%

full-length σ^70 subunit of E. coli RNA polymerase (from UniProt P00579 1-613) (natural protein)
translocation efficiency (fraction of 5-nt RNA) in extension of the 2-nt primer GpC on the LDT scaffold; core alone about 40% [2]: 95%

σ_(Δ4.2) fragment of σ^70 (residues 1–553) (from UniProt P00579 1-553) (domain or fragment)
translocation efficiency (fraction of 5-nt RNA) in extension of the 2-nt primer GpC on the LDT scaffold [1]: < 50%

σ_(Δ3–4) fragment of σ^70 (residues 1–448) (from UniProt P00579 1-448) (domain or fragment)
translocation efficiency (fraction of 5-nt RNA) in extension of the 2-nt primer GpC on the LDT scaffold [1]: < 50%

B1: SDT scaffold + pRNA13 (mixed)
RNA: AAUUGUGAGCGGA
DNA 1: TGCAATTGTCATCCGCTCA
DNA 2: ACAATTGCA
binding result [3]: binds

B2: T4 phage coactivator protein AsiA (natural protein)
chain: MNKNIDTVREIITVASILIKFSREDIVENRANFIAFLNEIGVTHEGRKLNQNSFRKIVSELTQEDKKTLIDEFNEGFEGVYRYLEMYTNK
inhibition by 1 μM AsiA of abortive transcription by σ^70-EcoRNAP at the lacUV5 promoter (AsiA used to disrupt the pair σ4.2 of σ^70 and β-FTH of the core) [4]: 85%
inhibition by 1 μM AsiA of de novo 3-nt RNA synthesis by σ^70-EcoRNAP on the SDT2 scaffold (AsiA used to disrupt the pair σ4.2 of σ^70 and β-FTH of the core) [4]: 50%
